Experiment: soluble on expression in E. coli; label from the status in PepcDB or PDB records
With “MSLATPDRLTIVNQYVDNVLTKAGDHYHGQSPTPLLADGVDPRTGKQMEWIFPDGRHAVLSNFSAQQNLMRVLVGLSNLSGNPSYKQRAEAIVKYHFQHYQDESGLLIWGGHRFVDLKTLQPEGPSEKEMVHELKNAYPYYDLMFSVDKDATARFIRGFWNAHVYDWKIMETSRHGKYGQKIGALWQSPFEQQPPFFATKGLSFLNAGNDLIYSASLLYKYNKEDGALVWAKRLAQQYVLPRDKATGLGVYQFTQALKRDETTDDADTHSKYGDRAQRQFGPEFGPTALEGNMMLKGRTSTIYSENALMQLQLGKDLGAEGKELLTWTTDGLKAFAKYAYNESDNTFRPMLANGKDLSNYVLPRDGYYGKKGTVIKPYPADNSFLLSYARAYTVLPDAELWRVARGIARAQGLGELGSAPGKDVKVDLATKNNDPYALFALLDLYQASKVKDYLSLAEKVGDNIISTRYQNGFFMAEPNRQYADVDTIEPYALLALEAAVRNQPQSVAPFLNGAGFTEGGYRMEDGSTRVSTRDNEIFLLNVGETLKPNNKKEGHHHHHH” the “soluble on expression in E. coli” value was “soluble”.
With “AIACTGCVQKQYPDRGNTCLENGSYLMNFVGCANCHQRDFVLISDRTMVNEDEEEIVTYLHMCKNCEHVIARHEYTFTVVDDYQEYTMLCMLCGKAEDSISVLPDDPRQTAPLF” the “soluble on expression in E. coli” value was “soluble”.
For “MSDHAEEHASINTKKTVENITDVRKTAKTSIDWTKPSGGEYPDIKQKHVWIDVNVKEQKAYIKEGSNTIYTMMISSGLDQTKDDATPKGTFYVEPERGEWFFSEGYQEGAEYWVSWKNHGEFLFHSVPMTKDQKVIKTEAEKLGTKVSHGCIRLTIPDAKWVYENIPEHTKVVISLEHHHHHH”, the “soluble on expression in E. coli” value was “not soluble”.
In the case of “MGSDKIHHHHHHMGSLAVIDAPGWYETIRMADGVTLIHEPWIKPFFRCNIWHVRGRDRDLLFDTGLGHFSLRTHVPLVTERKLTCVASHTHFDHIGCHHEFPDRGVHPAEAKILADPRNEWTVADRYATDDMFDGLPQGWESSRYRILPAPADRLLDHGDVVDLGDRAFEVIHTPGHSPGGIALYEKKTGILLSGDIIYDGPLIDDVYHSDIPDYMATLLAMRELDVSVVHGGHFPSFGKVRYRQLIDEYLAQKRRAGCHLRQRP”, the “soluble on expression in E. coli” value is reported as “not soluble”.
With “MNLMNVADKVIKSAFESDEVFQKTLSAVIKEDLNLTAVDFAKKANIPPSTLYKILSGNRDPNIKTLRQIVKTIRDIKESDSGEFIAVIAARSVLDNIVETKKKIGGRLVTIREYSATSMEDAIISAVNAERDGAKALVCAPIVGPTVEKILNIPVTTIAPKNSLIDAIERALKKME” the “soluble on expression in E. coli” value was “not soluble”.
With “MEEGYRLKFIFIGNQNNNIKNKNFSNPHNILFDSKKDIILTQDLCEEFLNLNINKQDHAIELLKKELSPLLFEDSLSYLKEEFINEKLEFNISNLASRYTANNDVDTINNKIIEGISITNNFKYTNISYLKELKGYIENDILDKMKSKYAKNIYLNFKKIFSNLEQSVNNYLELEEEFEEKKKYLSEIYELIDEINIDPYIFLTEHNECNIYKISENEKLELQTYMSKIEKVLLKYQTYLKETCKECLFYPYLLVQGEAGIGKSHLLAHLSKKLRDENHIIYLFLGQFFTKNEDPWHQILNDLEVTNSVDNFLRSISNKAKETKKRAFIIIDALNEGEGKRLWGNYFQSFINHIKKYSNIALIFSIRTPFEDVILPKNAIQDNNIVVFQHEGFSKEENYNPIVSFCDFYGLELPKLPILNPEFNNPLFLKLMCEYCVNKFKEFDQTISVAELFTNVLKTVNINLSKEDKFDFDKNINVVQKVIKGLVELMNDSEFNQLNYEESYTVVNNIAKEYVQKSNRFLEALIDENILIKNTGYKGEMIIYFSYERMGDYFLSEYLLEKYRNVDKRDLVTKLQSDEKVTRYFQKEDDLSYNRGLINELFIKLANEFNIELFEVFPQFKNNYNMIYSFINSLVWRKDGSISKHTKCYISDNVIPYDAFRNNFLDVLLIKMPQKNHPLNIWALHKLLKQCNLGKRDFLWTQYISINNEKVFEIINWLFSNYKKLDEETAEKYMIFLTWIFSATNNKLRDLGTKSLVKLFKTFPTKIIGLLKLFENNNDPYIVERLYASVLGATLRIDICEIHIEIANYIYEEIFDKEMVYPHILMRDYARQTIEYISLSKDISNINLEKIRPPYKSNWYKKEYSNLNIDDYIKSLKNKLDSHLHFSIDKIKNSMTTEYGRGTGAYGDFGRYVFGYAVRNWVKGFKSDQDLSNIALMRIFEMGYDAKLHGEFDMWVNRYDNFNNSIERISKKYQWIAYYEILAKLVDKFPDVQYSGLWDDYIRDIDPTLLLLEIDK” the “soluble on expression in E. coli” value was “not soluble”.
For “MLPSTMFLVHLPLSTNRLHCLRNTSLESCLCSFVHLNHPLHISDPVILISLHEAVRFSFAFSFPRGTLSIAYCLMSSVSTSSEAIMSTELLANYCHSSLHVCICISSFPNETGNHDSFPGAVVSISDQPTDQCKLAAKELPLRNLLECRFFDCMGEEDLINLGVIGTER”, the “soluble on expression in E. coli” value was “soluble”.
With “MAIRVIGTGFGRTGTDSMREALTILGFGPCHHMSEVMGNEDQKRLWRALAKGAAPDWNQLFAGYASCIDWPSAHYWRDLIEFYPKARVILTYRSPESWWASFEKTILAGISQSTDQESLGLALISRQVFDGRPHDRANAIAVYEANVRAVIATVPPSRLLVHNLGDGWKPLCLHLDVPVPDKPYPNRNTTKDFQSALAQN” the “soluble on expression in E. coli” value was “soluble”.
With “MGSLRLLADIQGEDLESLYGYAKQLFDGGEIAAARNVYQLLSTLDHWNFDYLLALGLCHQRLGAHNEAVVCFGRAGLIKVDDPRAAFYAGISYRLDGNAEYASKAFKAAINWCGEQIDYQAIKASAVDMLALQQEEVPLEHHHHHH” the “soluble on expression in E. coli” value was “not soluble”.
For “MKKYADDSLMLHTDLYQINMVETYWEDRMHERRAVFEVFFRKLPFGNGYAVFAGLERVIQFLQQFRFSDSDIDYLRQELGYRDDFLDYLRTLRFTGTVRSMREGEVVFANEPIMRIEAPLAEAQLIETAILNIINFQTLIATKASRIKHILGDEPALEFGSRRAQEMDAALWGARAAYIGGIEATSNVRAGKLFGIPVAGTHAHSMIQAYQDEYTAFLKYARRHKDCVFLVDTYDTLKSGVPNAIRVAKELGDQINFIGIRIDSGDLAYLSKEARKMLDEAGFPNAKIFASNDLDEDTILNLKSQGAKIDVWGIGTKLITAYDQPALGAVYKMVAIENERGEMVDTIKISGNPEKVTTPGLKRVYRIVNKINHKAEGDYIALESENPQQEERLKMFHPVYTFISKFVTNFEARDLHVTIFDNGRLVYTSPPLPDIQAYAKESLRLFWEEYKRTLNPEQYPVDLSQACWDNKMENIRKVKEKIAGASLSE”, the “soluble on expression in E. coli” value was “not soluble”.
With “FINQKKVEESELIENKTYGVLITKAGNYHKFESNQLLKSTTDFKSESDTIIFAQTIANTDQIFIVTSLGNIINIPVYKLAFNSKNKLASLVSKKPILLEYETIVFVGTMN” the “soluble on expression in E. coli” value was “not soluble”.
For “DIQMTQSPSSLSATLGGKVTITCKASQDINKYIAWYQHKPGKGPRLLIHYTSTLQPGNPSRFSGSGSGRDYSFSISNLEAEDIAIYYCLQYDNLQRTFGGGTKVEIKRADAAPTVSIFPPSSEQLTSGGASVVCFLNNFYPKDINVKWKIDGSERQNGVLNSWTDQDSKDSTYSMSSTLTLTKDEYERHNSYTCEATHKTSTSPIVKSFNRNE”, the “soluble on expression in E. coli” value was “soluble”.
For “MPTFLECPHCQRLYSKHSLLIHEKNCIESMHKILEQEKLKMQNNQKRGRSKSGRRKKIRPAEMTTTERPRTRSLSRYNHENNGLRICFVCGEQYDDQVIEEHKEKCYGDWSILSKSLSVRFHIHQPKTLNTPSIDGTIDVARENMRAVQSSHNCQIVRCRFCNARISLQHAQSHQCVRFEPTIEFYC”, the “soluble on expression in E. coli” value was “soluble”.
With “VAWFTDEEGGRGRIEAGQLADLVVPDKDFFSCPEDDISFLVSELTMVGGRIVYAAGGFAALDDNPLPPAMPDWSPARTFKGYAAWGDPDGAGRHSLQRRAVAACGCANACGLHGHQHARAWGTALPVSDAKGFFGALGCSCWA” the “soluble on expression in E. coli” value was “not soluble”.
In the case of “MDFVTGAVAHRRKFGGGRGQSIAKAVGLKQGVTPKVVDGTAGLGRDAFVLASLGCTVTMVERHPVVAALLEDGLRRAYQDAEIGDWMRERMQLFHGSSLEALAKLEQGVDVVYLDPMYPHRDKSALVKKEMRVFQTLVGADLDADGLLAPAMALASKRVVVKRPDYAEDLAGVKPSMVIETKKNRFDVYVKSAMKLEHHHHHH”, the “soluble on expression in E. coli” value is reported as “not soluble”.
For “AIAFRSVLVEAAVRVESPLLAHRLEDALLHACKQRFCSRILPSLGVCLTALRICKLVDGAGKQLALEIWPVEVSGGGLRARVHVELLLWSPLPHELAFAQVRSCSRFGIRLSILNGFDYAFVPPGSMPEPCTYHEEQRCWSWRFNEDDFVIGEGDWVRVLIERVEYATDSAMATFDSPGTVGSGPPLHILPPPVPVGRTVMETDQANATPGAHPEHAPPLETEPPEFWETPSILPLRVWARLDAPGLGPIDWWS”, the “soluble on expression in E. coli” value was “soluble”.
With “MGSDKIHHHHHHMLSNLWKRQAPQMVGIDIGSHEVKAILLGKTADGYKILSHAAVPVKKGAINDHDIRDADAVVECLRQIKRILPKSVKYAAVAVSGSAVMTKVIYMDASLSEEEMEAQIEIEADNLIPYSLDEVSIDFETLNVNSTDPSKVDVLLSACRTDNIDTRVDALDEVELETKVVDVEGYALGRAVELVLGQLPEGARQKAVAMVDIGANMTTFCVVESGETTFIREQAFGGELFTQSILSFYGMSYEQAEKAKIEGDLPRNYMFEVLSPFQTQLLQQIKRTLQIYCTSSGKDKVDYLVLCGGTSKLEGMANLLTNELGVHTIIADPFQGCLHADESVKNILQPSISKYMVACGLALRSYGQWRT” the “soluble on expression in E. coli” value was “not soluble”.
With “MGSDKIHHHHHHMGGLQNVRSAALIGHNGSGKSLLLAQILYKSGLIDKADTKYVDYDPVEEEKGASFSSHVASLEWKGKKVYLIDTPGFSDFISEVINGIFVSENIISVVNAVAGVEIQTERTWNMADEMKKPIIVFVNQMDKERANFENVVAELKERFSRKIVPVVVPIGAAENFEGVVDLLKKKAYRYDGDKVQEEDMPESFNDMRSEILEDIVEQDEELMMRYLDGEDIGYDELMRVLKEGYKKGEIVPVLSGSALKGIGLDLLLDYLGDIGVSPEEAPSYKALLEDGTEIEVKFSEEEPFCAYIFKSVVDQFVGRITFAKVIAGVLRPGDTVVNVQKDVTEKVGHVYVPILKQQKEVESAGPGEIVVLLKLKEGAVGETLAHRDRRVKIVPPAFPEPMFSRSVHPKSKSDIDKISSGLSRLSDSDPTFVWEYDPETGETVVSGLGAMHLDVMIERLKKIFGVDVEVGKPKIAYRETITTTAVAEHKHKKQTGGHGQYGHVKIQLEPLPRGQGYEFVDKIVGGVIPRNFIPSVDKGIREAMKKGVLAGYPVTDVRVILFDGSYHEVDSSDISFQIAAIQAFKKGMEAAKPVILEPIMEVEVFVPEENAGDVMGEISSRRGRPLGMEPSGKGMVKVKAEVPLAEMLDFSSKLSSITSGRGYFTMRFQRYEIVPPNIQEKIIEERRREMQEQEK” the “soluble on expression in E. coli” value was “not soluble”.
With “MGSDKIHHHHHHMREDFLSREEVDALLRGVSSGSTTSEQSTANPGFRPYNLATQERIVRGRMPTLEIINERFARLLRLGLFNFMRRSANVTAGPVRVMKFSEFVRNLAAPSNLNLVHIKPLRGTSLFVFDPTLVFLVVDNLFGGDGRFLPKTEGRDFTQTEQRIIQRLLNLVFDSYGKSWHPVYPIEFEYLRAETNTQFANVATPNEVVVATTFEVNFGSVVGEMHICMPYSILEPIRDLLSSTLQGEALEVDKRWVGRLSKQVQSAEVTLLANLTHAQVRLDQILNMKVGDVIPLDIPEFVTASVDGVPVMECKYGISNGRYALRMEKMLASGNSNE” the “soluble on expression in E. coli” value was “not soluble”.

From the DeepSol protein solubility set
